# According to patent US20220220218A1 (JIANGSU HENGRUI MEDICINE, published 2022):
# Numbering of substitutions follows the chain as printed.
# T1: human CD73 on tumor cell line MDA-MB-231 that highly expresses human CD73 (human, UniProt P21589 27-549)
# T1 sequence (looked up): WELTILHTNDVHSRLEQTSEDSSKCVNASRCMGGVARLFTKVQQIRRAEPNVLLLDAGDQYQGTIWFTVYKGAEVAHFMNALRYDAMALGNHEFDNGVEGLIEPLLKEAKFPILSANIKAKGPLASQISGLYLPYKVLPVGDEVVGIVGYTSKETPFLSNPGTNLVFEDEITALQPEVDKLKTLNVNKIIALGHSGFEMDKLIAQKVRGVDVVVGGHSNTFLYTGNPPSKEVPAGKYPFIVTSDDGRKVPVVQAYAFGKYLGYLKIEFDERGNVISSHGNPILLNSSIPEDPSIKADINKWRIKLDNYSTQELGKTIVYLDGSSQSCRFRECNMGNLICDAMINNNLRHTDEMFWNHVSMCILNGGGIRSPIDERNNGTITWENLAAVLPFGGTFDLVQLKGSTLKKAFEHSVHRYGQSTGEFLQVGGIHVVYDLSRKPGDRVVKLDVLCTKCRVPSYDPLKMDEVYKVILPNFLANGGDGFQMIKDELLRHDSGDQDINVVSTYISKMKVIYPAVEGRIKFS
# T2: CD73-Myc-His (a fusion protein of the CD73 mature protein extracellular domain and Myc tag and His tag) (human, UniProt P21589 27-547, biotinylated with a kit (sites not given))
# T2 construct: Captured on streptavidin-coated plates in the ELISA; also called biotinylated CD73-myc-his fusion protein; human CD73 protein
# T2 sequence: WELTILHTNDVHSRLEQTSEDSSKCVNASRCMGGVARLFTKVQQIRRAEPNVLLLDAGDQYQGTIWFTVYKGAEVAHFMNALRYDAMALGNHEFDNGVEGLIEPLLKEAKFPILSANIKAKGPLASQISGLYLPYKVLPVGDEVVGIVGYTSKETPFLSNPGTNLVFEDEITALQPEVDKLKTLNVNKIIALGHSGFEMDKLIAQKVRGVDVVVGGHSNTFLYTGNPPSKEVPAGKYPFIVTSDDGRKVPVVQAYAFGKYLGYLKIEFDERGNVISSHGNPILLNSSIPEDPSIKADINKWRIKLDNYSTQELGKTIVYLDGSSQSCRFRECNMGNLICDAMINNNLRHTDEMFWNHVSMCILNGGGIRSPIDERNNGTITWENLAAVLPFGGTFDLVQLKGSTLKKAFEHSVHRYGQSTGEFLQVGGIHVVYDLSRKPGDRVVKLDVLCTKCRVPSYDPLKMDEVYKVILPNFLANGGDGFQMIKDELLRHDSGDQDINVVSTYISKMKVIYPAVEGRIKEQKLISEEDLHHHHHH
# B1: Hab108.64 (antibody, human IgG1, kappa, V domains shown)
# VH: EVTLKQSGPGLVKPTETLTLTCTVSGFSLSSYGIQWVRQPPGKGLEWLGVIWSGGSADYNAAFISRLTISKDTSKSQVVLTMTNMDPVDTATYYCAGQYGSVWGQGTLVTVSS
# VL: DIQMTQSPSSLSASVGDRVTITCRASQDIGDRLNWLQQKPGGAIKRLIYATSSLDSGVPKRFSGSGSGTEYTLTISSLQPEDFATYYCLQYAGSWTFGGGTKVEIKR
# notes: also called humanized antibody of mab108
# B2: Hab110.21 (antibody, human IgG1, kappa, V domains shown)
# VH: EVQLVQSGAEVKKPGASVKVSCKASGYTFTSYTMHWVRQAPGQRLEWMGYINPNSFYIEYNQKFKDRVTITRDTSASTAYMELSSLRSEDTAVYYCARGDYDLFYDMDNWGQGTTVTVSS
# VL: DIQMTQSPSSLSASVGDRVTITCRASQDIGNSLNWLQQKPGKAIKRLIYATFRLDSGVPSRFSGSRSGTEYTLTISSLQPEDFATYYCQQYASFPWTFGGGTKVEIKR
# notes: also called humanized antibody of mab110
# B3: Hab127.31d (antibody, human IgG1, kappa, V domains shown)
# VH: EVQLVQSGAEVKKPGASVKVSCKASGYTFTAYFMNWVRQAPGQGLEWMGRIYHNKGDTFYSQKFKGRVTMTVDKSTSTVYMELSSLRSEDTAVYYCATSYVGDWGQGTTVTVSS
# VL: B2 VL with N31D, K42G, I44L, F52S, R53S, R66G, Q89L
# notes: also called humanized antibody of mab127
# B4: CPX006 (antibody CPX-006 disclosed in patent application WO2018013611) (antibody, V domains shown)
# VH: QVQLVQSGAEVEKPGASVKVSCKASGYTFTSYWITWVRQAPGQGLEWMGDIYPGSGNTNYNEKFKTRVTITADKSTSTAYMELSSLRSEDTAVYYCAKEGGLTTEDYALDYWGQGTLVTVSS
# VL: EIVLTQSPATLSLSPGERATLSCRASKNVSTSGYSYMHWYQQKPGQAPRLLIYLASNLESGIPPRFSGSGYGTDFTLTINNIESEDAAYYFCQHSRELPFTFGQGTKVEIKR
# Biological target: T1, human CD73 on tumor cell line …
# Assay: cell-based or functional assay
row,IC50 (nM) in the assay showing the inhibition of enzyme activity in MDA-MB-231 cell [nM],Binder
1,0.53,B1
2,0.329,B2
3,0.505,B3
4,10.2,B4

# Biological target: T2, CD73-Myc-His (a fusion protein of the …)
# Assay: ELISA; biotinylated CD73-myc-his captured on streptavidin plate
# Method: The binding of anti-CD73 antibodies to human CD73 protein was tested by ELISA assay. The biotinylated CD73 fusion protein was immobilized onto a 96-well microtiter plate by binding to the Streptavidin coated on the microtiter plate. The signal strength after the addition of the antibody was used to determine the binding activity of the antibody to CD73. The specific experimental procedures were as follows:
# Streptavidin (Sigma, Cat No. S4762-5MG) was diluted with PBS, pH7.4 (Shanghai BasalMedia, Cat No. B320) buffer to a concentration of […], was added into the 96-well microtiter plate (Corning, Cat No. CLS3590-100EA), 50 μl/well, and incubated in an incubator at 37° C. for 2 hours. The liquid was discarded, 250 μl/well blocking solution (5% skim milk (BD skim milk, Cat No. 232100) diluted in PBS) was added, and incubated in an incubator at 37° C. for 3 hours or at 4° C. overnight (16-18 hours) for blocking. After blocking, the blocking solution was discarded; the plate was washed for 5 times with PBST buffer (PBS containing 0.05% tween-20, pH7.4), 50 μl/well of biotinylated CD73-myc-his fusion protein (Tojin Chemical, Cat No. LK03, biotinylation method was according to the kit's instruction) diluted with sample diluent (PBS containing 1% BSA, pH7.4) was added, and incubated in an incubator at 37° C. 1 hour or at 4° C. overnight. After the incubation was finished, the reaction solution was removed from the microtiter plate, the plate was washed for 5 times with PBST, 50 μl/well of various concentrations of each of the test antibodies (purified hybridoma antibodies or humanized antibodies, diluted with sample diluent) were added, and incubated in an incubator at 37° C. for 1 hour. After the incubation was finished, the plate was washed for 5 times with PBST, 50 µl/well of HRP-labeled goat anti-mouse secondary antibody (Jackson Immuno Research, Cat No. 115-035-003) or goat anti-human secondary antibody (Jackson Immuno Research, Cat No. 109-035-003) diluted with sample diluent was added, and incubated at 37° C. for 1 hour. The plate was washed for 5 times with PBST, 50 μl/well of TMB chromogenic substrate (KPL, Cat No. 52-00-03) was added, incubated at room temperature for 5-10 min, and 50 μl/well of 1M H₂SO₄ was added to stop the reaction.
row,EC50 [nM],Binder
1,0.047,B1
2,0.026,B2
3,0.026,B3
4,0.088,B4
